Test system: C100Flag recombinant protein (Met + APP695 C-terminal fragment + Flag)
Sequence (chain, as listed by the source): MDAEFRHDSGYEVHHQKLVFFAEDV

γ3 protease in a membrane preparation from HeLa S3 cells
γ-secretase activity (cleavage of the substrate, Aβ products detected by ECL): significant γ-secretase activity remains at pH 6.0 (the pH optimum for γ-secretase activity associated with γ3 protease)
